Target: the molecule itself
Test: SAXS

B1: Staphylococcus aureus GbaA, disulfide cross-linked (oxidized) (natural protein)
chain: MRKDAKENRQRIEEIAHKLFDEEGVENISMNRIAKELGIGMGTLYRHFKDKSDLCYYVIQRDLDIFITHFKQIKDDYHSNYEVMQVSLDYLLQFKIDNKALLQCIEAGNNKLRFYQSAFYQELFDFYYDLFKSDDDTYTKFKTDMLLQSLSTSVFAFQIEHRHISIEAYRNYLLNIYLDEVGRND
modifications: intraprotomer disulfide C55-C104
stoichiometry N: 2
